Data as given in patent US20170360796A1, “BTK INHIBITOR COMBINATIONS AND DOSING REGIMEN” (PHARMACYCLICS LLC, priority 2014, published 2017).

Key:
[1] = tested on: patients with relapsed/refractory CLL; details: single agent; cited from earlier work
[2] = tested on: patients with relapsed/refractory CLL and related diseases; experiment: Phase 1b/2 study of ibrutinib combined with ofatumumab (NCT01217749): efficacy; type: in vivo, human; details: group 3, ofatumumab lead-in before initiating ibrutinib
Description: Key eligibility criteria also included failure of ≧2 prior therapies including a nucleoside analogue (unless contraindicated); ≧10% expression of CD20 on CLL/SLL cells by flow cytometry; ECOG performance status ≦2; and adequate end-organ function.
This phase 1 b/2, single-center, open-label, sequential-group study was approved by the institutional review board and conducted in accordance with the principles of the Declaration of Helsinki and the International Conference on Harmonization Guidelines for Good Clinical Practice.

[3] = tested on: B-cell lines including CLL cells; details: compared with rituximab; cited from earlier work

ofatumumab: anti-CD20 monoclonal antibody that binds to an epitope distinct from that for rituximab
Major bleeding events ≧ grade 3 [1]: 1.6% | peripheral sensory neuropathy (grade 1 and 2) [1]: 13% | patients who progressed (PD) on ofatumumab monotherapy [2]: 17% | complement-dependent cytotoxicity and NK-cell ADCC [3]: more potent
